Experimental findings from paper PMC6291252 (PLoS ONE, 2018) are described below.

This test concerns the target Recombinant TcdB (aa 1751–2366), biotinylated (Clostridioides difficile; strain of …, UniProt P18177). Nature of the test: SPR. As to conditions: both partners purified.

Recombinant TcdB (aa 1751–2366), biotinylated, sequence (P18177 1751-2366): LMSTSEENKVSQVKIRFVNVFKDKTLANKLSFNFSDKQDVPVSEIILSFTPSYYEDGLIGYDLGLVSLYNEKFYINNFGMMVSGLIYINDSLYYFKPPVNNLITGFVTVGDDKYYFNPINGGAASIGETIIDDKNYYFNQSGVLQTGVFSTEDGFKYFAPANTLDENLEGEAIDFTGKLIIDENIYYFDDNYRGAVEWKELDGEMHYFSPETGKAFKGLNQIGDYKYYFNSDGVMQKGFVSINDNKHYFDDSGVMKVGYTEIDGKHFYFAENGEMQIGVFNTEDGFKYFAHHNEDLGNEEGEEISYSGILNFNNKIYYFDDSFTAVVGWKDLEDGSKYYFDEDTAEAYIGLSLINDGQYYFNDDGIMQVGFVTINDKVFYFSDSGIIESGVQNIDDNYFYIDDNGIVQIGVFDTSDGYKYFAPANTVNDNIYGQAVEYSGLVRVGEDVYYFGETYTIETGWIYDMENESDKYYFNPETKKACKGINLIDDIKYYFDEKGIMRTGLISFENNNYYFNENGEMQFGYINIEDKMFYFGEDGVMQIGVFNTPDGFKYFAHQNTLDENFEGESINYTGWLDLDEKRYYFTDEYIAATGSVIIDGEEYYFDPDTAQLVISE

B1: B39 (VHH)
VHH: QVQLVESGGGLVQAGGSLRLSCAASGLTFSRYVMGWFRQAPGKEREFVAAITWGGTPNYADSVKGRFTISRDNSKNTQYLQMNSLKPEDTAVYYCAAGLGWDSRYSQSYNYWGQGTQVTVSS
B1: the Kd came out at 0.07 nM, the dissociation rate constant (koff) came out at 0.00256 s⁻¹ and the association rate constant (kon) was found to be 3.44e+07 M⁻¹ s⁻¹.
